Changes are numbered by the printed parent chain. Names and notes keep the numbering of the source.
Test system: 3-methylcrotonic acid
Type: biochemical, Yersinia frederiksenii
Set-up: key: “+” representing a low increase in activity; “++++” representing a high increase in activity

B1: P284E-N287Q-S322T-N388M-K394R-C430N-L432F-L434W-S436N-dA463-Y469E (protein)
chain: MFLKSLREQINLLKRQGDLRIINRPVDSYLEAAAIIRRSTETKAPVPLMTNIKGYPGCSIVGGLAALSSNPEYPLSRVAMSLGLSTTASAQSIVQYLIDGLKKTPYLPVEIDSNSAPCKQNILRGEDASLAHFPIPQVHQHDGNRYVNTWGVFIVESPDGQWCNWSIQRVQYLNDRQMIALVFPSQHISDIWEEWVKIGKPMPYALVQGCEPIVPYIAGLPLLERNVNEAEYIGALYGKGIEVVKCETHDLRVPASSEVVIEGYFAITREGVEGPFGEFAGYIENEQSLQPILSITAISWQDDPIWPVVAEGKPVDEYHTCTGIGDAAAIQNVLLTANLPVSFVWVPLYSACHLMIVSINRHWRQTHPDLTSEQLTKKVGDVIHQTRMSIKLPRIVVLDDDVDPADTESLLWALATRIHPERKRYFYESNIFPWLNCYSEEERHNRKGKRVIIDALLPENHGAISSFDEAYPDDIKQRVLMHWETDFSHD
  Activity relative to WT: ++++

B2: I283T-P284D-N285M-E286H-N287T-S322T-N388M-K394R-C430A-L432F-L434W-S436N-G462P-A463P (protein)
chain: B1 chain with I283T, E284D, N285M, E286H, Q287T, N430A, G462P, A463P, E469Y
  Activity relative to WT: ++++

B3: I283T-P284D-N285T-N287T-S322T-N388M-K394R-C430A-L432F-L434W-S436N-G462P-A463P (protein)
chain: B1 chain with I283T, E284D, N285T, Q287T, N430A, G462P, A463P, E469Y
  Activity relative to WT: ++++

B4: I283T-N285P-N287T-Q290E-S322T-Q365S-N388M-K394R-C430A-L432F-L434W-S436N-G462P-A463P (protein)
chain: B1 chain with I283T, E284P, N285P, Q287T, Q290E, Q365S, N430A, G462P, A463P, E469Y
  Activity relative to WT: ++++

B5: I283T-P284D-N285M-E286A-N287T-S322T-N388M-K394R-C430A-L432F-L434W-S436N-G462P-A463P (protein)
chain: B1 chain with I283T, E284D, N285M, E286A, Q287T, N430A, G462P, A463P, E469Y
  Activity relative to WT: ++++

B6: I283T-N285P-E286D-N287T-Q290E-S322T-N388M-K394R-C430A-L432F-L434W-S436N-G462P-A463P (protein)
chain: B1 chain with I283T, E284P, N285P, E286D, Q287T, Q290E, N430A, G462P, A463P, E469Y
  Activity relative to WT: ++++

B7: I283T-N285P-N287T-L289A-Q290E-S322T-N388M-K394R-C430A-L432F-L434W-S436N-G462P-A463P (protein)
chain: B1 chain with I283T, E284P, N285P, Q287T, L289A, Q290E, N430A, G462P, A463P, E469Y
  Activity relative to WT: ++++

B8: I283T-P284D-N285M-E286N-N287T-S322T-N388M-K394R-C430A-L432F-L434W-S436N-G462P-A463P (protein)
chain: B1 chain with I283T, E284D, N285M, E286N, Q287T, N430A, G462P, A463P, E469Y
  Activity relative to WT: ++++

B9: I283T-N285P-N287T-L289Y-Q290E-S322T-N388M-K394R-C430A-L432F-L434W-S436N-G462P-A463P (protein)
chain: B1 chain with I283T, E284P, N285P, Q287T, L289Y, Q290E, N430A, G462P, A463P, E469Y
  Activity relative to WT: ++++

B10: I283T-P284D-N285M-E286G-N287T-S322T-N388M-K394R-C430A-L432F-L434W-S436N-G462P-A463P (protein)
chain: B1 chain with I283T, E284D, N285M, E286G, Q287T, N430A, G462P, A463P, E469Y
  Activity relative to WT: ++++

B11: I283T-P284D-N285S-N287T-S322T-N388M-K394R-C430A-L432F-L434W-S436N-G462P-A463P (protein)
chain: B1 chain with I283T, E284D, N285S, Q287T, N430A, G462P, A463P, E469Y
  Activity relative to WT: ++++

B12: I283T-P284D-N285M-N287T-S288T-S322T-N388M-K394R-C430A-L432F-L434W-S436N-G462P-A463P (protein)
chain: B1 chain with I283T, E284D, N285M, Q287T, S288T, N430A, G462P, A463P, E469Y
  Activity relative to WT: ++++

B13: I283T-P284D-N285M-E286D-N287T-S322T-N388M-K394R-C430A-L432F-L434W-S436N-G462P-A463P (protein)
chain: B1 chain with I283T, E284D, N285M, E286D, Q287T, N430A, G462P, A463P, E469Y
  Activity relative to WT: ++++

B14: I283T-P284D-N285H-N287T-S322T-N388M-K394R-C430A-L432F-L434W-S436N-G462P-A463P (protein)
chain: B1 chain with I283T, E284D, N285H, Q287T, N430A, G462P, A463P, E469Y
  Activity relative to WT: ++++

B15: I283T-P284D-N285L-N287T-S322T-N388M-K394R-C430A-L432F-L434W-S436N-G462P-A463P (protein)
chain: B1 chain with I283T, E284D, N285L, Q287T, N430A, G462P, A463P, E469Y
  Activity relative to WT: ++++

B16: I283T-N285P-N287T-Q290E-S322T-Q365M-N388M-K394R-C430A-L432F-L434W-S436N-G462P-A463P (protein)
chain: B1 chain with I283T, E284P, N285P, Q287T, Q290E, Q365M, N430A, G462P, A463P, E469Y
  Activity relative to WT: ++++

B17: I283H-P284D-N285M-N287T-S322T-N388M-K394R-C430A-L432F-L434W-S436N-G462P-A463P (protein)
chain: B1 chain with I283H, E284D, N285M, Q287T, N430A, G462P, A463P, E469Y
  Activity relative to WT: ++++

B18: I283T-P284D-N285V-N287T-S322T-N388M-K394R-C430A-L432F-L434W-S436N-G462P-A463P (protein)
chain: B1 chain with I283T, E284D, N285V, Q287T, N430A, G462P, A463P, E469Y
  Activity relative to WT: ++++

B19: N388M-K394R-C430A-L432F-L434W-S436N (protein)
chain: B1 chain with E284P, Q287N, T322S, N430A, E469Y
  Activity relative to WT: +

B20: N388M-K394R-C430N-L432F-L434W-S436N-H444L (protein)
chain: B1 chain with E284P, Q287N, T322S, H444L, E469Y
  Activity relative to WT: +

B21: P284E-N287Q-S322T-N388M-K394R-C430N-L432F-L434W-S436N-dA463-A470S (protein)
chain: B1 chain with E469Y, A470S
  Activity relative to WT: ++++

B22: I283Q-P284D-N285M-N287T-S322T-N388M-K394R-C430A-L432F-L434W-S436N-G462P-A463P (protein)
chain: B1 chain with I283Q, E284D, N285M, Q287T, N430A, G462P, A463P, E469Y
  Activity relative to WT: ++++

B23: I283L-N285P-N287T-Q290E-S322T-N388M-K394R-C430A-L432F-L434W-S436N (protein)
chain: B1 chain with I283L, E284P, N285P, Q287T, Q290E, N430A, E469Y
  Activity relative to WT: ++++

Reference: US20250327097A1, “ORGANISMS PRODUCING LESS CROTONIC ACID” (Global Bioenergies, priority 2021, published 2025)
